Values quoted from earlier work, collected in PMC11816975, “Bioactive Peptides from Milk Proteins with Antioxidant, Anti-Inflammatory, and Antihypertensive Activities” (Foods, 2025).

Columns and labels:
NO production = test system: NO production; set-up: method as in PMID 23768340; conditions: at 100 µg/mL
[1] = set-up: method as in PMID 23768340; conditions: at 100 µg/mL

Molecule	inhibition of NO production (NO production)	ferric reducing power [1]	DPPH• inhibition (at 100 µg/mL, ref Habib et al. 55)	DPPH• radical scavenging capacity (at 500 µg/mL)
cLF: isolated camel lactoferrin (protein, UniProt Q9TUM0 20-708, looked up) Lactotransferrin: ASKKSVRWCTTSPAESSKCAQWQRRMKKVRGPSVTCVKKTSRFECIQAISTEKADAVTLDGGLVYDAGLDPYKLRPIAAEVYGTENNPQTHYYAVAIAKKGTNFQLNQLQGLKSCHTGLGRSAGWNIPMGLLRPFLDWTGPPEPLQKAVAKFFSASCVPCVDGKEYPNLCQLCAGTGENKCACSSQEPYFGYSGAFKCLQDGAGDVAFVKDSTVFESLPAKADRDQYELLCPNNTRKPVDAFQECHLARVPSHAVVARSVNGKEDLIWKLLVKAQEKFGRGKPSGFQLFGSPAGQKDLLFKDSALGLLRISSKIDSGLYLGSNYITAIRGLRETAAEVELRRAQVVWCAVGSDEQLKCQEWSRQSNQSVVCATASTTEDCIALVLKGEADALSLDGGYIYIAGKCGLVPVLAESQQSPESSGLDCVHRPVKGYLAVAVVRKANDKITWNSLRGKKSCHTAVDRTAGWNIPMGLLSKNTDSCRFDEFLSQSCAPGSDPRSKLCALCAGNEEGQNKCVPNSSERYYGYTGAFRCLAENVGDVAFVKDVTVLDNTDGKNTEQWAKDLKLGDFELLCLNGTRKPVTEAESCHLAVAPNHAVVSRIDKVAHLEQVLLRQQAHFGRNGRDCPGKFCLFQSKTKNLLFNDNTECLAKLQGKTTYEEYLGPQYVTAIAKLRRCSTSPLLEACAFLMR	about 5%	0.317 mM Fe^2+	2.77%	
bLF: bovine lactoferrin, orthologue compared with eLF (protein, UniProt P24627 20-708, looked up) Lactotransferrin: APRKNVRWCTISQPEWFKCRRWQWRMKKLGAPSITCVRRAFALECIRAIAEKKADAVTLDGGMVFEAGRDPYKLRPVAAEIYGTKESPQTHYYAVAVVKKGSNFQLDQLQGRKSCHTGLGRSAGWIIPMGILRPYLSWTESLEPLQGAVAKFFSASCVPCIDRQAYPNLCQLCKGEGENQCACSSREPYFGYSGAFKCLQDGAGDVAFVKETTVFENLPEKADRDQYELLCLNNSRAPVDAFKECHLAQVPSHAVVARSVDGKEDLIWKLLSKAQEKFGKNKSRSFQLFGSPPGQRDLLFKDSALGFLRIPSKVDSALYLGSRYLTTLKNLRETAEEVKARYTRVVWCAVGPEEQKKCQQWSQQSGQNVTCATASTTDDCIVLVLKGEADALNLDGGYIYTAGKCGLVPVLAENRKSSKHSSLDCVLRPTEGYLAVAVVKKANEGLTWNSLKDKKSCHTAVDRTAGWNIPMGLIVNQTGSCAFDEFFSQSCAPGADPKSRLCALCAGDDQGLDKCVPNSKEKYYGYTGAFRCLAEDVGDVAFVKNDTVWENTNGESTADWAKNLNREDFRLLCLDGTRKPVTEAQSCHLAVAPNHAVVSRSDRAAHVKQVLLHQQALFGKNGKNCPDKFCLFKSETKNLLFNDNTECLAKLGGRPTYEEYLGTEYVTAIANLKKCSTSPLLEACAFLTR				approximately 33%
